The target of the data set is RTEF-1 (TEAD4) (Homo sapiens) (UniProt Q15561). Put plainly: cell_activity.
Sequence of RTEF-1 (TEAD4) (Homo sapiens) (Q15561 other isoform, or with tags, fused parts or gaps): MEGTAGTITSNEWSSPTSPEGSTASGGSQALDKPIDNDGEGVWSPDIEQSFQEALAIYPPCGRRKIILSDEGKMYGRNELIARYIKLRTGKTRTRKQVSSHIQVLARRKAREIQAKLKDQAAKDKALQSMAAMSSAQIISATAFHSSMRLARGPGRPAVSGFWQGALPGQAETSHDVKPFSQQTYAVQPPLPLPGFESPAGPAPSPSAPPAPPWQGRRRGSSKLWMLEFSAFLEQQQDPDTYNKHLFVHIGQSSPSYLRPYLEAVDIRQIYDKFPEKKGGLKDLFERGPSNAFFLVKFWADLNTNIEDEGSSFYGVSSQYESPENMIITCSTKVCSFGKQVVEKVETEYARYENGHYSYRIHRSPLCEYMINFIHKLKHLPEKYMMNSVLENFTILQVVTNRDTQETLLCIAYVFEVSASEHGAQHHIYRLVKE

As for VEGF 0.35 promoter (-194/+157), for the setting “luciferase, +/-0.3, 2.7 +/-0.2 fold in hypoxia”, the activity is 2.2 fold. For the setting “luciferase in BAEC”, FGFR1 0.15 kb promoter (-48/+94) gave an activity above 3 fold.

For the origin of these results see patent publication US20080138330.
